From patent publication US6506881B1, “Anti-HMFG antibodies and processes for their production” (Celltech R&D Limited, priority 1991, dated 2003)
Where a chain is given by its changes, count along the chain named.

Assays:
[1] = test system: polymorphic epithelial mucin (PEM); test: Direct binding ELISA on PEM-coated microwell plates, transiently expressed antibodies; set-up: species or system human; details: from all direct binding assays (FIG. 22, 23)
Procedure: Direct binding ELISA assays for determining the binding activity of the transiently expressed antibodies were carried out as follows.
An affinity column was prepared by attaching the CTM01 MAb to a suitable chromatographic medium in conventional manner. In a first method, pooled human urine samples were applied directly to the affinity column. In a second method, human milk was subjected to low speed centrifugation to separate the cream from skimmed milk. The skimmed milk was then subjected to high speed centrifugation to produce an aqueous and a lipid component. The aqueous component was applied to the affinity column.
Once the affinity column was loaded, by either of the two methods, column fractions were eluted at high and low pHs, neutralised and assayed for reactivity with the CTM01 MAb. Fractions showing reactivity were pooled and dialysed.
Microwell plates were coated with PEM obtained as described above. The microwells were then incubated with serial dilutions of culture supernatants.
Direct binding assays were carried out on the culture supernatants produced by the doubly transfected cell lines.

[2] = test system: MCF-7 breast carcinoma cells; test: In vitro cell binding and internalisation of 125I-labelled antibody, MCF-7; format: cell-based; details: MCF-7 cells; 125I-labelled antibody at 2 μg/million cells; continuous exposure
Procedure: (§1) Antibody, purified from the supernatant of each cultured cell line by protein-A sepharose chromatography was radiolabelled (^125I) and incubated using a conventional continuous exposure method with either MX-1 or MCF-7 breast carcinoma cells. Radiolabelled murine CTMO1 was used in all tests as a comparison. All antibodies were incubated at 2 μg/million cells. The total binding of antibodies to the cells and the peak net uptake of the antibodies by the cells was determined.

[3] = test system: MX-1 breast carcinoma cells; test: In vitro cell binding and internalisation of 125I-labelled antibody, MX-1; format: cell-based; details: MX-1 cells; 125I-labelled antibody at 2 μg/million cells; continuous exposure
Procedure: as §1

B1: gL1gH2: CDR-grafted light chain gL1 with CDR-grafted heavy chain gH2, transiently expressed (antibody, V domains shown)
VH: QIQLVQSGAEVKKPGSSVKVSCKASGYTFTDYYINWMRQAPGQGLEWIGWIDPGSGNTKYNEKFKGRATLTVDTSTNTAYMELSSLRSEDTAFYFCAREKTTYYYAMDYWGQGTLVTVSS
VL: DIQMTQSPSTLSASVGDRVTITCRSSKSLLHSNGDTFLYWFQQKPGKAPKLLMYRMSNLASGVPSRFSGSGSGTEFTLTISSLQPDDFATYYCMQHLEYPFTFGQGTKVEVKR
[1]
  order of binding activity of antibodies produced by transient expression: cLcH3>gL1ch=gL1gH2>cLgH2=gL2H2=gL1gH1=gL2cH>gL2gH1

B2: hu1:CTMO1: CDR-grafted humanised CTMO1, gL1 light chain, gH2 heavy chain, human IgG2 constant domains, from NSO cells (antibody, V domains shown)
VH: B1 VH
VL: B1 VL
[2]
  Peak Net Uptake (molecules/cell): 150,000 molecules/cell
  Total Binding, 0° (molecules/cell): 650,000 molecules/cell
[3]
  Peak Net Uptake (molecules/cell): 150,000 molecules/cell
  Total Binding, 0° (molecules/cell): 1,200,000 molecules/cell

B3: hu:CTMO1: CDR-grafted humanised CTMO1, gL1 light chain, gH2 heavy chain, altered human IgG4 (IgG4P) constant domains (antibody, V domains shown)
VH: B1 VH
VL: B1 VL
[2]
  Peak Net Uptake (molecules/cell): 90,000 molecules/cell
  Total Binding, 0° (molecules/cell): 450,000 molecules/cell
[3]
  Peak Net Uptake (molecules/cell): 150,000 molecules/cell
  Total Binding, 0° (molecules/cell): 1,100,000 molecules/cell

B4: gL1gH1: CDR-grafted light chain gL1 with CDR-grafted heavy chain gH1 (antibody, V domains shown)
VH: B1 VH with I48M, A68V, L70I
VL: B1 VL
[1]
  order of binding activity of antibodies produced by transient expression: cLcH3>gL1ch=gL1gH2>cLgH2=gL2H2=gL1gH1=gL2cH>gL2gH1
